Reference: patent US8980614B2, “Staphylococcus haemolyticus prophage φSH2 endolysin is lytic for Staphylococcus aureus” (The United States of America, as represented by The …, priority 2012, dated 2015)

Assays:
S. aureus 305 = assay: Plate lysis assay; type: cell-based; conditions: 100 pmoles and 2-fold serial dilutions spotted on bacterial lawns
Procedure: (§1) Purified proteins (100 pmoles in a 10 μl volume and five two-fold serial dilutions thereof) were spotted onto a freshly spread lawn of log phase staphylococcal cells (OD600 nm of 0.4-0.6, diluted ¼ before plating) that had air dried for 15 min on gridded TSA (tryptic soy agar) plates. The spotted plates were air dried for 10 min in a laminar flow hood and incubated overnight at 37° C. Cleared spots indicating cell lysis were scored within 24 hours of plating the cells.
(§2) The φSH2 full length enzyme and the A1 construct were further tested in plate lysis assays against a set of different staphylococcal strains, including MRSA strains (NRS 382-385), mastitis isolates (305, Tanji 1-26), and coagulase negative staphylococci (non S. aureus) (Table 2). The same molar amounts of both proteins (ranging from 100 pmoles to 3.125 pmoles, in a volume of 10 ul) were spotted onto lawns of mid log phase cells of the respective strains, and the plates were analyzed for lysis zones the next day.

S. aureus NRS 382 = assay: Plate lysis assay; type: cell-based; conditions: S. aureus NRS 382 (MRSA); 100 pmoles and 2-fold serial dilutions spotted on bacterial lawns
Procedure: as §1, §2

S. aureus NRS 383 = assay: Plate lysis assay; type: cell-based; conditions: S. aureus NRS 383 (MRSA); 100 pmoles and 2-fold serial dilutions spotted on bacterial lawns
Procedure: as §1, §2

S. aureus NRS 384 = assay: Plate lysis assay; type: cell-based; conditions: S. aureus NRS 384 (MRSA); 100 pmoles and 2-fold serial dilutions spotted on bacterial lawns
Procedure: as §1, §2

S. aureus NRS 385 = assay: Plate lysis assay; type: cell-based; conditions: S. aureus NRS 385 (MRSA); 100 pmoles and 2-fold serial dilutions spotted on bacterial lawns
Procedure: as §1, §2

S. aureus Newman = assay: Plate lysis assay; type: cell-based
Procedure: as §1, §2

S. aureus Tanji 19 = assay: Plate lysis assay; type: cell-based; conditions: 100 pmoles and 2-fold serial dilutions spotted on bacterial lawns
Procedure: as §1, §2

S. aureus Tanji 1 = assay: Plate lysis assay; type: cell-based; conditions: 100 pmoles and 2-fold serial dilutions spotted on bacterial lawns
Procedure: as §1, §2

S. aureus Tanji 20 = assay: Plate lysis assay; type: cell-based; conditions: 100 pmoles and 2-fold serial dilutions spotted on bacterial lawns
Procedure: as §1, §2

S. aureus Tanji 26 = assay: Plate lysis assay; type: cell-based; conditions: 100 pmoles and 2-fold serial dilutions spotted on bacterial lawns
Procedure: as §1, §2

S. chromogenes = assay: Plate lysis assay; type: cell-based; conditions: 100 pmoles and 2-fold serial dilutions spotted on bacterial lawns
Procedure: as §1, §2

S. epidermidis = assay: Plate lysis assay; type: cell-based; conditions: 100 pmoles and 2-fold serial dilutions spotted on bacterial lawns
Procedure: as §1, §2

S. hyicus = assay: Plate lysis assay; type: cell-based
Procedure: as §1, §2

S. simulans = assay: Plate lysis assay; type: cell-based
Procedure: as §1, §2

S. warneri = assay: Plate lysis assay; type: cell-based; conditions: 100 pmoles and 2-fold serial dilutions spotted on bacterial lawns
Procedure: as §1, §2

S. xylocus = assay: Plate lysis assay; type: cell-based; conditions: 100 pmoles and 2-fold serial dilutions spotted on bacterial lawns
Procedure: as §1, §2

S. aureus Newman cells [1] = assay: Turbidity reduction assay; type: cell-based, Staphylococcus aureus
Procedure: The turbidity reduction assay measures a decrease in optical density of a bacterial suspension due to lysis of the target bacteria by a lytic protein. The assays were performed in a 96-well dish format essentially as described previously (Donovan et al. 2006, supra). In order to reduce the variability of the assay, frozen stocks of S. aureus Newman substrate cells were prepared in a large batch as described by Becker et al. (2009b, supra). Immediately prior to the assay, the frozen cells were thawed, washed, and resuspended in the desired assay buffer such that when 100 μl of cell suspension were added to 100 μl of lysis buffer+/−protein, the final suspension has an OD600nm of ˜1.0.
Protein constructs were assayed at a concentration of 1 μM, and the assay was performed at room temperature, measuring the OD600nm at 1 min intervals for 45 min. Buffer without enzyme served as the control. The steepest slopes of the resulting lysis curves, which correspond to the lytic activities of the proteins, were determined by a sliding window over each group of three consecutive time points for the entire 45 min period. Specific activities were expressed as ΔOD600nm/min/μM, and the “no enzyme” control value was subtracted from each experimental value.
In order to determine the effect of salt concentration on lytic activity, turbidity reduction assays were performed in 10 mM Tris buffers at pH 7.5 with varying NaCl concentrations between 0 mM and 600 mM. Accordingly, the influence of pH was determined by using a series of different buffers with pH values ranging from 3.5 to 10.0. Citrate buffers were used for pH 3.5, 4.5, 5.5, and 6.0, MOPS buffers for pH 6.5, 7.0, and 7.5, Tris buffers for pH 8.0 and 9.0, and Carbonate/bicarbonate buffer for pH 10.0. The concentration of the buffer substance in all buffers used was 20 mM, and the NaCl concentration was 200 mM. To test the effect of bivalent metal ions, assays were performed in 10 mM Tris, 200 mM NaCl, pH 7.5 supplemented with MgCl2, MnCl2, or CaCl2 at different concentrations (0.1 mM, 1 mM, 10 mM), buffer without metal ions serving as control.

S. aureus Newman cells [2] = assay: Zymogram with S. aureus Newman cells embedded in the gel; type: cell-based; conditions: 5 μg protein
Procedure: All purified proteins were analyzed with 15% SDS-PAGE, using a Kaleidoscope Precision Plus Protein Standard (BioRad, Hercules, Calif.). For zymograms, a 300 mL culture volume equivalent of live mid-log phase (OD600nm=0.4-0.6) cells of S. aureus strain Newman was embedded in the gel during polymerization. The protein samples were boiled in Laemmli sample buffer (BioRad) with β-mercaptoethanol, and electrophoresed with identical buffers and voltage for one hour in both the SDS-PAGE and the zymogram using a Mini-Protean TETRA gel system (BioRad). SDS gels were Coomassie stained and zymograms were washed in excess water and further incubated in deionized water for 60 min, followed by incubation in 10 mM Tris, pH 8.0 with 150 mM or 300 mM NaCl for 80 min. Areas of clearing in the turbid zymogram gel indicate a lytic protein in the gel.

[3] = tested on: staphylococcal strains (MRSA strains, mastitis isolates, coagulase negative staphylococci); assay: Plate lysis assay, whole set of strains; type: cell-based, Staphylococcus; conditions: 100 to 3.125 pmoles spotted
Procedure: as §1, §2

[4] = 100 pmoles and 2-fold serial dilutions spotted on bacterial lawns

B1: ΦSH2 A1: Truncation of φSH2 lysin (1-166), isolated CHAP domain, 6×His-tagged, from pφSH2_A1, SEQ ID NO:4 (protein)
chain: MKTQAEINKRLDAYRKGTVDSPYRVKVWTSYDNRFYPMEPGCIDVDKSFHAQCADLTIDYILWLTDNEFRIRGNAKDAINPKKNKLPEGWKIVLNRPSTVPRKGWIAVFTDGTYWEYGHIGMVYDGGNTSRFQILEQNWNGWANKKPSLRWDNYYGLTHFIVPPVALEHHHHHH
modifications: 6xHis tag; Bacteriophage Phi SH2
With B1 the “Lytic activity (lowest amount of protein producing a lysis zone)” value (S. aureus 305) was “++++ (++++: 12.5 pmoles)”, the “Lytic activity (lowest amount of protein producing a lysis zone)” value (S. aureus NRS 382) was “++ (++: 50 pmoles)” and the “Lytic activity (lowest amount of protein producing a lysis zone)” value (S. aureus NRS 383) was “− (‘−’ means that no lysis was observed at the highest amount tested (100 pmoles))”. For the same molecule, the “Lytic activity (lowest amount of protein producing a lysis zone)” value (S. aureus NRS 384) was “++ (++: 50 pmoles)”, the “Lytic activity (lowest amount of protein producing a lysis zone)” value (S. aureus NRS 385) was “− (‘−’ means that no lysis was observed at the highest amount tested (100 pmoles))” and the “Lytic activity (lowest amount of protein producing a lysis zone)” value (S. aureus Newman; [4]) was “+ (+: 100 pmoles)”. The “amount of protein causing a lysis zone” value (S. aureus Newman; 100 to 3.125 pmoles spotted) was 100 pmol, the “Lytic activity (lowest amount of protein producing a lysis zone)” value (S. aureus Tanji 19) was “+++ (+++: 25 pmoles)” and the “Lytic activity (lowest amount of protein producing a lysis zone)” value (S. aureus Tanji 1) was “+++ (+++: 25 pmoles)”. The “Lytic activity (lowest amount of protein producing a lysis zone)” value (S. aureus Tanji 20) was “+++ (+++: 25 pmoles)”, the “Lytic activity (lowest amount of protein producing a lysis zone)” value (S. aureus Tanji 26) was “+ (+: 100 pmoles)” and the “Lytic activity (lowest amount of protein producing a lysis zone)” value (S. chromogenes) was “++ (++: 50 pmoles)”. For the same molecule, the “Lytic activity (lowest amount of protein producing a lysis zone)” value (S. epidermidis) was “− (‘−’ means that no lysis was observed at the highest amount tested (100 pmoles))”, the “Lytic activity (lowest amount of protein producing a lysis zone)” value (S. hyicus; [4]) was “++++ (++++: 12.5 pmoles)” and the “amount of protein causing a lysis zone” value (S. hyicus; 100 to 3.125 pmoles spotted) was 12.5 pmol. The “Lytic activity (lowest amount of protein producing a lysis zone)” value (S. simulans; [4]) was “+++ (+++: 25 pmoles)”, the “amount of protein causing a lysis zone” value (S. simulans; 100 to 3.125 pmoles spotted) was 25 pmol and the “Lytic activity (lowest amount of protein producing a lysis zone)” value (S. warneri) was “++ (++: 50 pmoles)”. For the same molecule, the “Lytic activity (lowest amount of protein producing a lysis zone)” value (S. xylocus) was “++ (++: 50 pmoles)”, the “lytic (specific) activity compared with the full length φSH2 lysin” value (S. aureus Newman cells [1]; 1 μM protein, at optimum salt concentration) was “approximately three-fold higher” and the “increase of lytic activity by Ca2+” value (S. aureus Newman cells [1]; 1 mM CaCl2, relative to 0 mM, 10 mM Tris, 200 mM NaCl, pH 7.5) was “more than 6 fold”. For the same molecule, the “effect of Mg2+ on lytic activity” value (S. aureus Newman cells [1]; 0.1-10 mM MgCl2, 10 mM Tris, 200 mM NaCl, pH 7.5) was “not significantly alter”, the “effect of Mn2+ on lytic activity” value (S. aureus Newman cells [1]; 0.1-10 mM MnCl2, 10 mM Tris, 200 mM NaCl, pH 7.5) was “slightly inhibitory effect” and the lysis in zymogram (S. aureus Newman cells [2]; after incubation in deionized water for 60 min) was “did not cause a lytic band”. The lysis in zymogram (S. aureus Newman cells [2]; water 60 min, then 10 mM Tris, 150 mM NaCl, pH 8.0 up to 80 min) was “intense lytic band”, the “strains against which lytic activity was displayed” value ([3]; 16 strains tested) was 13 out of 16 and the MRSA strains lysed ([3]; four MRSA strains (NRS 382-385)) was “two MRSA strains”.
